Molecular target: the molecule itself
Assay: small angle neutron scattering

B1: outer membrane protein OmpF (receptor)
chain: AEIYNKDGNKVDLYGKAVGLHYFSKGNGENSYGGNGDMTYARLGFKGETQINSDLTGYGQWEYNFQGNNSEGADAQTGNKTRLAFAGLKYADVGSFDYGRNYGVVYDALGYTDMLPEFGGDTAYSDDFFVGRVGGVATYRNSNFFGLVDGLNFAVQYLGKNERDTARRSNGDGVGGSISYEYEGFGIVGAYGAADRTNLQEAQPLGNGKKAEQWATGLKYDANNIYLAANYGETRNATPITNKFTNTSGFANKTQDVLLVAQYQFDFGLRPSIAYTKSKAKDVEGIGDVDLVNYFEVGATYYFNKNMSTYVDYIINQIDSDNKLGVGSDDTVAVGIVYQF
modifications: partially deuterated (d-OmpF) in the SANS samples; hydrogenous or deuterated in the neutron reflection samples
  stoichiometry N: 3

From paper PMC3249085 (The Journal of Biological Chemistry, 2011)
